In experiment [1] the target is T1, human CLDN4 (claudin 4) (human, UniProt O14493 1-209).
T1 sequence: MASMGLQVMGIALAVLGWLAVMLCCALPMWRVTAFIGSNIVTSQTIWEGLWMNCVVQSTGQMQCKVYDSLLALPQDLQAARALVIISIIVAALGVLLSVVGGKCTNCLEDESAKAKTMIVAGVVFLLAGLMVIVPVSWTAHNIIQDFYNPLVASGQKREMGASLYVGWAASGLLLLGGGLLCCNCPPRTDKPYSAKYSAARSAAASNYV
Description: flow cytometry, HEK293 cells stably expressing the claudin. (Flow cytometry measures light scatter and fluorescence of single cells or particles in a stream.)
Description: (§1) To test the specificities and affinities of CLDN6-specific chimeric monoclonal antibodies binding to HEK293 cells stably transfected with CLDN3, 4, 6 or 9, respectively, and tumor cell lines that endogenously express CLDN6 was analyzed by flow cytometry. Therefore, cells were harvested with 0.05% Trypsin/EDTA, washed with FACS buffer (PBS containing 2% FCS and 0.1% sodium azide) and resuspended in FACS buffer at a concentration of 2×10⁶ cells/ml. 100 μl of the cell suspension were incubated with the appropriate antibody at indicated concentrations for 60 min at 4° C. A chimeric cross-reactive antibody (chimAB 5F2D2) was used to detect CLDN6 and CLDN9 expression. […] The cells were washed twice and resuspended in FACS buffer. The binding was analyzed by flow cytometry using a BD FACSArray.

Experiment [2] deals with T2, human CLDN3 (claudin 3) (human, UniProt O15551 1-220).
T2 sequence: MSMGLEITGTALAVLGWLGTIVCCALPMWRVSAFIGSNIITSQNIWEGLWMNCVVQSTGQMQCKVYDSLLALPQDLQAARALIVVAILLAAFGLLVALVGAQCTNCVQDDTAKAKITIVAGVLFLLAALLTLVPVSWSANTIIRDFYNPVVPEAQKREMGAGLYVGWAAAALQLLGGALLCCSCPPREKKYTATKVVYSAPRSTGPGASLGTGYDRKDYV
The description is as above.
Description: as §1

The target in experiment [3] is T3, human CLDN6 (claudin 6), full length (human, UniProt P56747 1-220).
T3 construct: denatured cell lysate in the Western blot; also called NP 067018.2
T3 sequence: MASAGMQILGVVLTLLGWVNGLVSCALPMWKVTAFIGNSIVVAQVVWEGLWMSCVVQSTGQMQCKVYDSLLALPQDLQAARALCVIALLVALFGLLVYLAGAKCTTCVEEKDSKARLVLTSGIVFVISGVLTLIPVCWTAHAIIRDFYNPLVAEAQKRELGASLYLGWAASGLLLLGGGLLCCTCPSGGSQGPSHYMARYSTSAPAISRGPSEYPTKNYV
The experiment can be described thus: flow cytometry, saturation binding on HEK293 cells stably expressing human CLDN6, median fluorescence.
Description: (§2) The binding of CLDN6-specific chimeric monoclonal antibodies to cells expressing the target was analyzed by flow cytometry. Therefore, cells were harvested with 0.05% Trypsin/EDTA, washed with FACS buffer (PBS containing 2% FCS and 0.1% sodium azide) and resuspended in FACS buffer at a concentration of 2×10⁶ cells/ml. 100 pl of the cell suspension were incubated with the appropriate antibody at indicated concentrations for 30 min at 4° C. […] The cells were washed twice and resuspended in FACS buffer. The binding was analyzed by flow cytometry using a BD FACSArray.

Experiment [4] concerns the target T4, human CLDN9 (claudin 9) (human, UniProt O95484 1-217).
T4 sequence: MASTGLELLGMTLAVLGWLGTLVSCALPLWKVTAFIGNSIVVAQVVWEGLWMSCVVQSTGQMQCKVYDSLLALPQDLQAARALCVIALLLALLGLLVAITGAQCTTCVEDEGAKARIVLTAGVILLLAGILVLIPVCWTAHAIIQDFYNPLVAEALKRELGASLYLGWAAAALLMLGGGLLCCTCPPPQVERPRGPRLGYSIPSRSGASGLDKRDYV
The experiment can be described thus: flow cytometry, HEK293T cells transiently co-transfected with the claudin and a fluorescence reporter.
Description: (§3) To test the binding of monoclonal antibodies to CLDN6 and its homologous HEK293T cells were transiently transfected with the corresponding claudin-coding plasmid and the expression was analyzed by flow cytometry. In order to differentiate between transfected and non-transfected cells, HEK293T cells were co-transfected with a fluorescence marker as a reporter. 24 h post transfection cells were harvested with 0.05% trypsin/EDTA, washed with FACS buffer (PBS containing 2% FCS and 0.1% sodium azide) and resuspended in FACS buffer at a concentration of 2×10⁶ cells/ml. 100 μl of the cell suspension were incubated with the appropriate antibody at indicated concentrations for 30 min at 4° C. […] The cells were washed twice and resuspended in FACS buffer. The binding was analyzed by flow cytometry using a BD FACSArray. The expression of the fluorescence marker was plotted on the horizontal axis against the antibody binding on the vertical axis.

In experiment [5] the target is T1, human CLDN4 (claudin 4). The experiment is described as above.
Description: as §3
Experiment [6] has as its target T2, human CLDN3 (claudin 3). The description is as above.
Description: as §3
Experiment [7] addresses T4, human CLDN9 (claudin 9). Description: flow cytometry, HEK293 cells stably expressing the claudin.
Description: as §1
Experiment [8] concerns the target T3, human CLDN6 (claudin 6), full length. The experiment can be described thus: flow cytometry, NEC8 testicular cancer cells endogenously expressing human CLDN6.
Description: as §2
The target is the same in experiment [9]. The experiment can be described thus: flow cytometry on OV90 ovarian cancer cells endogenously expressing CLDN6, median fluorescence.
Description: as §2
Experiment [10] has the same target. Description: flow cytometry on NEC8 testicular cancer cells endogenously expressing CLDN6, median fluorescence.
Description: as §2
Experiment [11] concerns the target T4, human CLDN9 (claudin 9). The experiment can be described thus: flow cytometry, HEK293T cells transiently co-transfected with the claudin and a fluorescence reporter. The source holds these as a separate data set.
The target in experiment [12] is T2, human CLDN3 (claudin 3). The description is as above. The source holds these as a separate data set.
In experiment [13] the target is T1, human CLDN4 (claudin 4). The experiment is described as above. The source holds these as a separate data set.

Residue numbers refer to the chain shown, from its start. Names may count otherwise.

B1: chimeric monoclonal antibody chimAB 64A (antibody, human IgG1, kappa, V domains shown)
VH: EVQLQQSGPELVKPGASMKISCKASGYSFTGYTMNWVKQSHGKNLEWIGLINPYNGGTIYNQKFKGKATLTVDKSSSTAYMELLSLTSEDSAVYYCARDYGFVLDYWGQGTTLTVSS
VL: QIVLTQSPSIMSVSPGEKVTITCSASSSVSYMHWFQQKPGTSPKLCIYSTSNLASGVPARFSGRGSGTSYSLTISRVAAEDAATYYCQQRSNYPPWTFGGGTKLEIKR
notes: Mouse/human chimeric IgG1, kappa
Usually EC50 (read off the curve) stands for the concentration at which the effect is half-maximal. Low values mean higher potency in that assay, high ones lower potency in that assay. B1: the binding result in experiment [1] and in experiment [2] was “no binding (tested: 25 µg/ml (legend))” each time. Further, the “EC50 (read off the curve)” value in experiment [3] is approximately 200 ng/mL.

B2: murine monoclonal antibody muMAB 61D (antibody, mouse IgG2a, V domains shown)
VH: B1 VH with I59S, V72I, F102Y
VL: QIVLTQSPAIMSASPGEKVTITCSASSSVSYLHWFQQKPGTSPKLWVYSTSNLPSGVPARFGGSGSGTSYSLTISRMEAEDAATYYCQQRSIYPPWTFGGGTKLEIK
notes: the assignment is an inference; also called GT512muMAB 61D; DSM ACC3069
Consider B2, for which the binding result in experiment [4], in [5] and in experiment [6] was “no binding (tested: 25 µg/ml (legend))” throughout.

B3: murine monoclonal antibody muMAB 64A (antibody, mouse IgG2a, V domains shown)
VH: B1 VH
VL: QIVLTQSPSIMSVSPGEKVTITCSASSSVSYMHWFQQKPGTSPKLCIYSTSNLASGVPARFSGRGSGTSYSLTISRVAAEDAATYYCQQRSNYPPWTFGGGTKLEIK
notes: also called GT512muMAB 64A; DSM ACC3070
In the case of B3, the binding result in [5] and in experiment [6] was “no binding (tested: 25 µg/ml (legend))” in each case.

B4: chimeric monoclonal antibody chimAB 61D (antibody, human IgG1, kappa, V domains shown)
VH: B1 VH with I59S, V72I, F102Y
VL: QIVLTQSPAIMSASPGEKVTITCSASSSVSYLHWFQQKPGTSPKLWVYSTSNLPSGVPARFGGSGSGTSYSLTISRMEAEDAATYYCQQRSIYPPWTFGGGTKLEIKR
notes: as for B1
As for B4, the binding result in [7], in experiment [1] and in experiment [2] was “no binding (tested: 25 µg/ml (legend))” throughout.

B5: chimeric monoclonal antibody mAb206-LCC (antibody, human IgG1, kappa, V domains shown)
VH: B1 VH
VL: B4 VL
notes: inferred; also called light-chain combination variant
For B5, the “fold stronger binding affinity compared to chimAB 64A, mAb206-SUBG and mAb206-SUBS” value in [8] came out at 3 fold. The “EC50 (read off the curve)” value in experiment [9] is approximately 400 ng/mL; in [10], approximately 200 ng/mL; in experiment [3], approximately 200 ng/mL. For the same molecule, the binding result in experiment [11] and in experiment [12] was “no binding” in each case.

B6: chimeric monoclonal antibody mAb206-SUBS (antibody, human IgG1, kappa, V domains shown)
VH: B1 VH
VL: B1 VL with C46S
notes: Chimeric IgG1, kappa; also called amino acid substitution variant (C46S)
On to B6, for which the “EC50 (read off the curve)” value was approximately 500 ng/mL in experiment [9], approximately 500 ng/mL in experiment [10] and approximately 200 ng/mL in [3]. Further, the binding result in [11], in experiment [13] and in [12] was “no binding” each time.

B7: chimeric monoclonal antibody mAb206-SUBG (antibody, human IgG1, kappa, V domains shown)
VH: B1 VH
VL: B1 VL with C46G
notes: Chimeric IgG1, kappa; also called amino acid substitution variant (C46G)
As to B7, the “EC50 (read off the curve)” value in experiment [9] was approximately 500 ng/mL; in experiment [10], approximately 500 ng/mL; in experiment [3], approximately 200 ng/mL. The binding result in experiment [11], in experiment [13] and in experiment [12] was “no binding” in each case.

(Values after patent US20160264677A1 (GANYMED PHARMACEUTICALS, published 2016).)
